According to a protein production outcome set (Wang et al. 2014):

Experiment: label from the status in PepcDB records

Protein production, failed:
MSMLANFDFASFFAVAAAIVIGLYVVLDGFDLGVGILFPFAPRVSDRDAMMATLEPFWDGNETWLVLGGMVLLGAFPLAFAILLPAFYVPLCLMLFGLVIRGVAFEFRSQGGRFQIVWSATFAAGSFIAAFCQGAVLGAFVGRSITVSDGAFAGGPFDWLGLFSIATGLGVVAAYGLLGACWLVWKTSGSTQNFGRELMLPTLLCAGAAIVLISVWTPFAKPQIAERWFAWPDALLLAPLPIIAVLAGIGILLTRWSEREWAPLALSLLLFVTSLAGLGASVWPEAIPGVMTIWQASSMHRTQVIVAGAVVIIGPIILAYIGYGYWLFRGKTKPVPEFPPR
MSMLKRTLVLLGDTPSSLAARAYAFRLVQQTGTDLTGLAGVDLGEIEAPMLGGIGMSAYQTQLQTELKRQADATRERLQAAFSDECRSRSIACAALSFEGDAADGFRLATETRDLAIAGHDTGFGGSQEPLSAMIAKLVVRTPRPLIVCPDELPAGDAVLIAYDGSLPAMRALQVFALLGLGDGKQICVLAIDRDEAAAVRKANAAAEFLKIHGHAAQAVPSSSGDDPADLIRSAVAERNIGTVVMGAYGNRGFREALFGSTTDALVDTPPCALFLYH
MSMSAQGKKAAESTTSTRPAKLDKQAYEAELKRLQAELVDMQQWVVETGARVVIIMEGRDAAGKGSAIKRMTQYLNPRTCRIEALPAPNSREQGQWYFQRYVEKLPTAGEIVIFDRSWYNRAGVERVMGFCTSQEYRRFLHQAPIFERLLVEDGIMLRKYWFSVSDEEQIARFKSRRNDPLRRWKLSPMDLQSITRWEDYSRAKDEMFVHTDIPSAPWYTVESEDKKRSRINVISHLLSTIPYEKIDRP
MSNDLINGSILHCLETASLGMPLEVWKTRMCVYRNENTIKSFKNIYNKGLGQFYAGFYAKLIESGSKGAVLLLSKEQIIKVCNDMNINKTTSGFIGGACGGICQSLVMTPCTFFITASIDKKINYKEKLIHIFKNTGITTLYKGNTAMCLRQGTNWASRQGITEWIRNIVMERKKNRKNKNDDINNVKGMIFSGNDITTDKIKHNNNNNNNNNTSQSKSLELTTSEELFCGIVGGALSVWNNPFDVVRVYMQNNANKNIKLTFFQSFIHLYKEGGILYLYKGVIPRCFLCIWQTLFMVTGIKILNKYF
MSNEDSLPPFTLFGLDDVENYGLVTEADNSLPLDIHNQVFQLVEKGNQSFKESRFEEAISSYSKANSIKPLDPIVLGNRSAAYIRFGQYLKQRSASISEYKPLNGFDMSMLGELALKDADKLMSLQSSLVKSYITKACALMLLERYEVARDTILSGLQIDPFSGPLRSNLQELEKVMPNSMRKTHGMAERSDDFDCTVCLKLLYEPATTPCGHTFCRSCLFQSMDRGNKCPLCRTVIFMTPRTCAVSVTLNNIIEKNFPEEYAERKSEQDTLVHLGNESMPLFVMDVIIPCQKLSLHIFEPRYRLMVRRIMEGNHRMGMVALDSATGSPVDVACEVEITECDPLPDGRFVLELESHRRCRIVKAWDQDGYRVAEVEWVKDIPPQSEQGKADLRELTTSAASFARSWLDRAKEAARQGDRRRLEILLNVESMIPTPQDPERFSFWLATLTDRRPSERLELLRLQDTGEVLDYRLVQIARQISLFHQSLSFDC
MSNEFEPYNKEIKKIEFTTWKYQASKDAEHSPSDEEELINELEVVKQEAFQKGYADGFQQAQEEINAIKAELSKWLDLIQKPVQILDEQLTQEIIQTIIWLSQHCVAVELSVNPDKLNDLLNKIKGELPSLTGKKSISMHPDDVRWIKEVFSESNIPGLHELLVADPALNRGDFYLQGEHSELDGRIQTRFTTLFNEYINKENIIP
MSNEHKASIDGGQWAQCVRERGWLWDVAQGVEVQSAPTLILAHGAGAPMDSGFMNDIAVRLAGHGVNVLRFEFPYMAQRRLDGGKRPPNPAPRLLECWREVHALVRPYVTGVLALGGKSMGGRMASLLADELQADALVCLGYPFYAAGKPEKPRVAHLADLSVPSLIVQGERDALGNRQAVEAYTLAPGIELYWLTAADHDLKPLKASGFSHEQHLESAALKVAAFLKALS
MSNELPAVICLVGPTGAGKTAAALHLAERFAGTVINADSRQVYRDFPIITAQPTAEEQAQCPHRLYGFLETEARMSAGVWGDHATAAIDEALAQGRLPLLVGGTGMYVRALLDGIAAIPAIPRDIHVRWQERCAAEGPQRLHAMLCDIDAEYAARIHPNDRQRVTRALEVHEHTGRTFSEWHRSAMPAPRYRALRIGFAATLDALTPRLAHRIDLMLAAGALDEARRARVHCDDPSAPGWSGIGCAETYAHLVGSLDYEAMRHVWLHNTRAYAKRQLTWFRADTRLTWYAPDDVEGIALGVASFLRGGA
MSNIDFDKYRILLVNSYFQSRNAKITRFWNRATTNAKDIFHGIRTRKEFFSKIIRDFQTEFGEDFIEYLAGGELIGGITNILPIYENKMGVMERSGHIIHKKSGYHLTPDILSEYLINDVFFDNTFLKHNIEELAKADNGVHILDILNSLLKVKDDREIYREATEKLLEMLNCLESDNEQKKRRIRAGIVVYYGFGNLNLVTAAIGEFWTDYGILDDGIDLQALGIFLGDISKLYEARICMERANEIFKNNGDKIGIATSLHNLGIILHLQGNYEEAMNKYNQSLKIDEELGERHRISMSLRFLGRIEYDKGNYDDAVKLYNQSLMIAEKLGDQSGIAKLLGELGIVLLHQGNYDEAIKLYNQSLMIAEKLGDQSGIAGTLYELGKVYLIQDNYGESIEVQKRSLKIKELLGDKYGIAHSLHALGVTHEVKKEYTFALLNYLEASSIYKELNSPYSKDVSKLITDLRDKMGNEQFNKACKEFGYVPPDNI
MSNKRIGVVIVSYGHEQDVANLVDTFADQLKTGDRVVVVDNRKPWVLKDAVGERLEKHGAEIINHDNGGFAAGCNVGAAHIVDDVDLLFFLNPDTVIDDPTLFNSLRRVDEQWAAFMPYLLLPDSTINSAGNALHISGLSWVTGLDEKPVEGSSEVTDISIASGACLAVRVDWWKRLGGMEELYFMYHEDTDFSARLLLAGGRIGLLHSAYVTHHYDYAKGDYKWIYIERNRHVLLLSVLPLPLLFVLIPQILGVNLGLWAIAAKEKRVGLKVKSLRLLIRDLPAIFKLRRSTQELAELTPSQYLAKMEWRLDNPNLGNIGSNKIVATGYKTYYKLCMSILKLLA
MSNQQNVWVAYATQTQQFHIRVAFQQGMTAWQAIESSGLLTQVELPQPYHLGIFGVRCVADRLLEAGDRVEIYRPLTINPKDIRRKRAEKNPVGRFQKGNRFK
MSNSHLGTLCFIISLLGLANFSLSQTGLDDSTMQSLKSSLNLTSDVDWSNPNPCKWQSVQCDGSNRVTKIQLKQKGIRGTLPTNLQSLSELVILELFLNRISGPIPDLSGLSRLQTLNLHDNLFTSVPKNLFSGMSSLQEMYLENNPFDPWVIPDTVKEATSLQNLTLSNCSIIGKIPDFFGSQSLPSLTNLKLSQNGLEGELPMSFAGTSIQSLFLNGQKLNGSISVLGNMTSLVEVSLQGNQFSGPIPDLSGLVSLRVFNVRENQLTGVVPQSLVSLSSLTTVNLTNNYLQGPTPLFGKSVGVDIVNNMNSFCTNVAGEACDPRVDTLVSVAESFGYPVKLAESWKGNNPCVNWVGITCSGGNITVVNMRKQDLSGTISPSLAKLTSLETINLADNKLSGHIPDELTTLSKLRLLDVSNNDFYGIPPKFRDTVTLVTEGNANMGKNGPNKTSDAPGASPGSKPSGGSDGSETSKKSSNVKIIVPVVGGVVGALCLVGLGVCLYAKKRKRPARVQSPSSNMVIHPHHSGDNDDIKLTVAASSLNSGGGSDSYSHSGSAASDIHVVEAGNLVISIQVLRNVTNNFSEENILGRGGFGTVYKGELHDGTKIAVKRMESSVVSDKGLTEFKSEITVLTKMRHRHLVALLGYCLDGNERLLVYEYMPQGTLSQHLFHWKEEGRKPLDWTRRLAIALDVARGVEYLHTLAHQSFIHRDLKPSNILLGDDMRAKVSDFGLVRLAPDGKYSIETRVAGTFGYLAPEYAVTGRVTTKVDIFSLGVILMELITGRKALDETQPEDSVHLVTWFRRVAASKDENAFKNAIDPNISLDDDTVASIEKVWELAGHCCAREPYQRPDMAHIVNVLSSLTVQWKPTETDPDDVYGIDYDMPLPQVLKKWQAFEGLSQTADDSGSSSSAYGSKDNTQTSIPTRPSGFADSFTSVDGR
MSNSKWWFLLVCFIPAITFASEGGEHSDPVTSVLLGVTTILFLAIIGRYLARLLNQPGVLGELLIGMIVGNLSYFFGSELVVILREGSAIYDVVKEMLAGISLNQAVTHVIHNSYYANQVIHALSGAEGTEYLKIAYVVDIFSRYGVIFLLFMVGLETSLSDLKKTGKESILVAVIGIVAPMILGFVVACFIIPNSNYKINLFIGATLSATSIGITASVLKEMNKLSTREARTILGAATLDDILGLIILAVVSSIVISGAVSIMVVMKIIILALLFFIGTLFMGPFVLRKAVDLFRFLEPWESKLFISFLFIMALAWLASFIQLAAIIGAFAAGVILHDDYFGEQKAHHKDHRSIHHLVSPLETILAPMFFTLIGIQVKLETFYDWNVIVLAGGLSVAAILGKLLSGLGANRRDDRLLIGIGMLPRGEVGLVFASIGRTIGVISDNLFTAIVLMIMITTFIAPPLLKMRYAKPKEDRNA
MSNTIIRSLCVVLFGIAAVPGIADAQSSAYTNSGAELFAGPAPDYPVVAQLPPGTAVDVFGCLSDYSWCDVALPGVRGWIDAQQLDYPYQGNYVPLLEYGAIIGVPVTGFAIGTYWDRYYRHRPWFHDRDRWEHRAEPRVGPGGMPPAYYGRPQPGWPAQREPRGAPPVQHDARPSATRGGWNGPNRAPAPQVAPAPARAPAPMPAPAPMPAPAPIPGAAGVRQPAPPPAQPAQPAPSGGAVQMMPPAHQGGGGYGGRPQGGGDGGGNHGGGGGRGRSDEFRR
MSNYAAGLGKPGSGKRRIRDLLNQPDNRVCADCGASVPKWAKYQSIHLLKSCGVHRSLGTHILKVLSVTLDEWSDEEVDSMIETGGNASANSIYEAFVPDTCSKPGPDVNHDQRMRFIR

Protein production, not failed:
MSLYNYVLFDLDGTLTDSAEGITKSVKYSLNKFDIQVEDLSSLNKFVGPPLKTSFMEYYNFDEETATVAIDYYRDYFKAKGMFENKVYDGIEALLSSLKDYGFHLVVATSKPTVFSKQILEHFKLAFYFDAIVGSSLDGKLSTKEDVIRYAMESLNIKSDDAIMIGDREYDVIGALKNNLPSIGVTYGFGSYEELKNAGANYIVNSVDELHKKILELREGHHHHHH
MSNAFEYLRTYVESTTETDAAVARAREDAAEFGLPAPDEMTGQLLTTLAATTNGNGSTGAIAITPAAGLVGLYILNGLADNTTLTCIDPESEHQRQAKALFREAGYSPSRVRFLLSRPLDVMSRLANDSYQLVFGQVSPMDLKALVDAAWPLLRRGGALVLADALLDGTIADQTRKDRDTQAARDADEYIRSIEGAHVARLPLGAGLTVVTKALEHHHHHH
MSNDVDLIKRLGPSAMDQIMLYLAFSAMRTSGHRHGAFLDAAATAAKCAIYMTYLEQGQNLRMTGHLHHLEPKRVKAIVEEVRQALTEGKLLKMLGSQEPRYLIQFPYVWMEKYPWRPGRSRIPGTSLTSEEKRQIEQKLPSNLPDAHLITSFEFLELIEFLHKRSQEDLPKEHQMPLSEALAEHIKRRLLYSGTVTRIDSPWGMPFYALTRPFYAPADDQERTYIMVEDTARFFRMMRDWAEKRPNTMRVLEELDILPEKMQQAKDELDEIIRAWADKYHQDDGVPVVLQMVFGKKED
MSNHSSSIPELSDNGIRYYQTYNESLSLWPVRCKSFYISTRFGQTHVIASGPEDAPPLVLLHGALFSSTMWYPNIADWSSKYRTYAVDIIGDKNKSIPENVSGTRTDYANWLLDVFDNLGIEKSHMIGLSLGGLHTMNFLLRMPERVKSAAILSPAETFLPFHHDFYKYALGLTASNGVETFLNWMMNDQNVLHPIFVKQFKAGVMWQDGSRNPNPNADGFPYVFTDEELRSARVPILLLLGEHEVIYDPHSALHRASSFVPDIEAEVIKNAGHVLSMEQPTYVNERVMRFFNA
